Biological target: SARS-CoV-2 full length spike protein, V483A mutant (SARS-CoV-2), P0DTC2
Conditions: remark: other sources report otherwise

B1: antibody 262 (antibody, V domains shown)
VH: QVQLVESGGGVVQPGRSLRLSCAASGFTFSSYAMHWVRQAPGKGLEWVAVISYDGSNKYYADSVKGRFTISRDNSKNTLYLQMNSLRAEDTAVYYCARDGGELLWFGELDYYGMDVWGQGTTVTVSS
VL: SYELTQPSSVSVSPGQTARITCSGDVLAKKYARWFQQKPGQAPVLVIYKDSERPSGIPERFSGSSSGTTVTLTISGAQVEDEADYYCYSAADNNRGVFGGGTKLTVL
- median fluorescence intensity, fold over isotype control (fold over isotype): 1.63

Source: patent US20210292393A1
